# Legend:
# Assay type in all cases: physicochemical
# [1] = Asp^9-bivalirudin level by HPLC after adding pH-adjusting solution in four equal portions with inefficient mixing (Example 1, first part)
# Method: In a first part of the study, the bivalirudin solution (˜600 mL) comprised bivalirudin at a concentration of ˜0.1 mg/mL in a 2.64% w/w mannitol solution. The pH-adjusting solution (233 mL) comprised 0.5 N sodium hydroxide in a 2.64% w/w mannitol solution. Asp^9-bivalirudin levels were measured throughout the experiment by high-performance liquid chromatography (HPLC). pH was also measured through the experiment. One measurement of Asp^9-bivalirudin was taken immediately after the bivalirudin solution was formed (baseline).
# The pH-adjusting solution was added to the bivalirudin solution in four equal portions over the total duration of about 1 hour at a temperature of 5-8° C., each addition separated by about 15 minutes. The resulting compounding solution was mixed at between 600 rpm and 700 rpm throughout the addition of the first and second portions of the pH-adjusting solution, and the pH and Asp^9-bivalirudin levels were recorded (measurements #1 and #2). During the addition of the third portion, the mixer was turned off and the pH and Asp^9-bivalirudin levels were recorded (measurement #3A). The mixture was then subjected to high shear mixing at 4000 rpm for 30 seconds and the pH and Asp^9-bivalirudin levels were recorded (measurement #3B). During addition of the fourth portion, the mixer was turned off and the levels of pH and Asp^9-bivaluridin were recorded (measurement #4A). Mixing was then continued for, at least, two minutes at 5300 rpm and the pH was and Asp^9-bilvairudun levels were recorded (measurement #4B). The mixing rate was decreased to about 3600 rpm for 1 hour and the pH and Asp^9-bivalirudin levels were recorded (measurement #5). A portion of the material from measurement #4a was allowed to stand for 7 hours and the pH and Asp^9-bivalirudin levels were recorded (measurement #6).
# [2] = Asp^9-bivalirudin level by HPLC in portions of compounding solution adjusted to pH 8, 9, 10, 12 over time (Example 1, second part)
# Method: In a second part of the study, four portions of the final compounding solution from the first part of the study were removed. The pH levels of these portions were adjusted to 8, 9, 10, and 12, respectively, using additional pH-adjusting solution and high shear mixing on a Silverson Laboratory Emulsifier (Model L4RT).
# Samples of the portion of the compounding solution adjusted to pH 8 were taken immediately, and after about 80 minutes, 300 minutes, and 370 minutes. Samples of the portion of the compounding solution adjusted to pH 9 were taken immediately, after about 80 minutes, and 300 minutes. Further, samples of the portion of the compounding solution adjusted to pH 10 and 12 were taken immediately, after about 80 minutes and 170 minutes.
# [3] = Asp^9-bivalirudin level by HPLC in compounding solution under high shear mixing (Example 1, third part)
# Excerpt: In a third part of the study, the final compounding solution from the first part of the study was placed into a recirculation vessel for use in a recirculation water bath (Precision Model 181) to be subjected to high shear mixing using a Silverson Laboratory Emulsifier (Model L4RT). Prior to this study, it was thought that bivalirudin solutions were unstable to both heat and shear, thus requiring extreme care in handling bivalirudin during the compounding process. Before subjecting the compounding solution to high shear mixing, the level of Asp^9-bivalirudin was recorded (measurement #1). The compounding solution was then subjected to high shear mixing at ˜6000 rpm for 30 minutes without use of the recirculation water bath; the temperature of the compounding solution due to the high shear mixing rose to about 36° C. A sample was then measured for Asp^9-bivalirudin level (measurement #2). The mixing speed was then slowed to 5000 rpm for 120 minutes and the temperature was measured at about 33° C., and another sample was analyzed for Asp^9-bivalirudin level (measurement #3).
# [4] = Asp^9-bivalirudin level by HPLC after adding pH-adjusting solution in two portions of 75% and 25% at 400 rpm (Example 2)
# Method: The bivalirudin solution (˜760 mL) comprised bivalirudin at a concentration of 0.050 mg/ml dissolved in a 2.64% w/w mannitol solution. The pH-adjusting solution (233 mL) comprised 0.5 N sodium hydroxide in a 2.64% w/w mannitol solution. The experiment was conducted at a temperature of about 8° C.
# The pH-adjusting solution was divided into a 75% portion and a 25% portion of the total pH-adjusting solution volume. First, the pH and Asp^9-bivalirudin levels were measured before addition of the pH-adjusting solution (baseline). During addition of the 75% portion, at about 400 rpm, the pH was monitored during mixing until the pH achieved a constant level at which time the Asp^9-bivalirudin level was also measured (measurement #1). A portion of this material was allowed to sit for about 6.5 hours and the amount of Asp^9-bivalirudin was again measured (measurement #2). The 25% portion of the pH-adjusting solution was added about 30 minutes after the last base addition and mixing was continued at 400 rpm. The pH was initially recorded and then both the pH and Asp^9-bivalirudin levels were measured after about 30 minutes of mixing (measurement #3). The pH and Asp^9-bivalirudin levels were again recorded after mixing at 400 rpm overnight (measurement #4).
# [5] = Asp^9-bivalirudin level by HPLC after constant-rate addition of pH-adjusting solution under high shear mixing (Example 3)
# Method: The bivalirudin solution (675 mL) comprised 64.4 g dissolved in 2.64% w/w mannitol solution. The bivalirudin solution was divided in half for evaluation of adding the pH-adjusting solution at two different mixing rates. The bivalirudin solution was placed in a vessel with a high shear mixer.
# The pH-adjusting solution (131.2 mL) comprised 0.5 N sodium hydroxide in a 2.64% w/w mannitol solution. The pH-adjusting solution was loaded into a burette, which was connected on the bottom to a tube with a hose. The tube was positioned at the base of the high shear mixer blade inside the mixing vessel containing the bivalirudin solution. A clamp was used to restrict the pH-adjusting solution from passing through the hose.
# The speed of the high shear mixer (Silverson Laboratory Emulsifier Model L4RT) was set to either 1500 rpm or 3000 rpm. The clamp on the hose was removed and the pH-adjusting solution was then added to the bivalirudin solution at a controlled, constant rate of approximately 2 L/min.
# The volume of the compounding solution was then adjusted to a final volume of 562.5 mL.
# For the compounding solution mixed at 1500 rpm, after the pH-adjusting solution was added, the mixing speed was increased to approximately 4500 rpm for a short period of time to allow faster and complete dissolution, and then reduced to 1500 rpm until the solution was completely dissolved. After complete dissolution, the resulting compounding solution was moved from the vessel to a beaker which contained a stir bar. The solution was adjusted to a target pH of 5.3 using 19 mL of the pH-adjusting solution, and then the volume was adjusted to a final volume of 562.5 mL.
# For both mixing conditions, the pH was monitored throughout the addition of the pH-adjusting solution to the bivalirudin solution to form the compounding solution. The level of Asp^9-bivalirudin was measured by HPLC before (baseline) addition of the pH-adjusting solution, after the addition of the pH-adjusting solution (measurement #2), and after the volume of the compounding solution was adjusted to mark (measurement #3).
# [6] = Isoelectric point of bivalirudin
substance,measurement,setting,value
D-Phenylalanyl-L-Prolyl-L-Arginyl-L-Prolyl-Glycyl-Glycyl-Glycyl-Glycyl-L-Asparagyl-Glycyl-L-Aspartyl-L-Phenylalanyl-L-Glutamyl-L-Glutamyl-L-Isoleucyl-L-Prolyl-L-Glutamyl-L-Glutamyl-L-Tyrosyl-L-Leucine trifluoroacetate (salt) hydrate [bivalirudin],% Asp^9-bivalirudin,"[1]; #2: after addition of second portion of pH-adjusting solution, pH 4.2",0.43%
same,% Asp^9-bivalirudin,"[1]; #3A: after addition of third portion with no mixing, pH ~6 to 8",0.45%
same,% Asp^9-bivalirudin,"[1]; #3B: same as #3A but after mixing (4000 rpm, 30 seconds), pH 5.0",0.74%
same,% Asp^9-bivalirudin,"[1]; #4A: after fourth portion, sat for 10 minutes with no mixing, pH ~8.5 to 9",0.60%
same,% Asp^9-bivalirudin,"[1]; #4B: same as #4A but after mixing, pH 6.0 to 6.5",0.57%
same,% Asp^9-bivalirudin,"[1]; #5: same as #4A but after high speed mixing for 1 hour, pH 5.0",0.71%
same,% Asp^9-bivalirudin,"[1]; #6: same as #4A but 7 hours later with no mixing, pH ~8.5 to 9",2.05%
same,% Asp^9-bivalirudin,"[1]; Baseline: after bivalirudin solution was formed, pH ~2.5",~0.42%
same,% Asp^9-bivalirudin,"[2]; Baseline, pH 5",0.71%
same,% Asp^9-bivalirudin,"[2]; pH 8, after pH was adjusted",0.71%
same,% Asp^9-bivalirudin,"[2]; pH 8, after ~80 minutes",0.77%
same,% Asp^9-bivalirudin,"[2]; pH 8, after ~300 minutes",1.11%
same,% Asp^9-bivalirudin,"[2]; pH 8, after ~370 minutes",1.26%
same,% Asp^9-bivalirudin,"[2]; pH 9, after pH was adjusted",0.84%
same,% Asp^9-bivalirudin,"[2]; pH 9, after ~80 minutes",1.07%
same,% Asp^9-bivalirudin,"[2]; pH 9, after ~300 minutes",1.84%
same,% Asp^9-bivalirudin,"[2]; pH 10, after pH was adjusted",1.24%
same,% Asp^9-bivalirudin,"[2]; pH 10, after ~80 minutes",2.08%
same,% Asp^9-bivalirudin,"[2]; pH 10, after ~170 minutes",2.59%
same,% Asp^9-bivalirudin,"[2]; pH 12, after pH was adjusted",4.71%
same,% Asp^9-bivalirudin,"[2]; pH 12, after ~80 minutes",8.20%
same,% Asp^9-bivalirudin,"[2]; pH 12, after ~170 minutes",10.95%
same,% Asp^9-bivalirudin,"[3]; #1: before high shear mixing, RT ~20° C.",0.71%
same,% Asp^9-bivalirudin,"[3]; #2: after high shear mixing at 6000 rpm for 30 minutes, 36° C.",0.71%
same,% Asp^9-bivalirudin,"[3]; #3: after mixing rate was reduced to 5000 rpm for 120 minutes, 33° C.",0.75%
same,stability to high shear mixing conditions,[3]; high shear mixing 6000/5000 rpm,stable
same,% Asp^9-bivalirudin,"[4]; #1: after addition of 75% portion, pH peak at 12.2 then dropped to 8-9",0.44%
same,% Asp^9-bivalirudin,[4]; #2: same as #1 but after sitting for 6.5 hours with no stirring,0.88%
same,% Asp^9-bivalirudin,"[4]; #3: remaining 25% added, pH 12.4 initially then 7.7 after 30 minutes, taken from the bottom",2.19%
same,% Asp^9-bivalirudin,"[4]; #3: remaining 25% added, pH 12.4 initially then 7.7 after 30 minutes, taken from the top",1.85%
same,% Asp^9-bivalirudin,"[4]; #4: same as #3 but after mixing overnight, pH 5.0",1.57%
same,% Asp^9-bivalirudin,"[4]; Baseline: after bivalirudin solution was formed, pH 1.71",0.42%
same,% Asp^9-bivalirudin,"[5]; 1500 rpm, #1 after addition of pH-adjusting solution, pH ~6.0",0.31%
same,% Asp^9-bivalirudin,"[5]; 1500 rpm, #2 after compounding solution was adjusted to mark, pH 5.3",0.34%
same,% Asp^9-bivalirudin,"[5]; 1500 rpm, Baseline before addition of pH-adjusting solution, pH ~2.5",0.38%
same,% Asp^9-bivalirudin,"[5]; 3000 rpm, #1 after addition of pH-adjusting solution, pH ~5.6",0.41%
same,% Asp^9-bivalirudin,"[5]; 3000 rpm, #2 after compounding solution was adjusted to mark, pH 5.25",0.40%
same,% Asp^9-bivalirudin,"[5]; 3000 rpm, Baseline before addition of pH-adjusting solution, pH ~2.5",0.43%
same,degradation by high shear mixing,[5]; high shear mixing even up to 4500 rpm,not susceptible to degradation
same,isoelectric point,[6],about 3.6
